The test system of series [1] is HeLa Kyoto. Put plainly: solubility in G1/S (NP-40 vs SDS abundance) (log2 ratio); higher = more soluble. Particulars: cell cycle stage: G1/S.
Series [2] relates to HeLa Kyoto. The experiment in a line: melting temperature (median over replicates), in situ; higher = more thermally stable.
Series [3] relates to HeLa Kyoto. The experiment in a line: solubility change mitosis vs G1/S (difference of NP-40 vs SDS log2 ratios) (log2 ratio difference); higher = more soluble in mitosis.
The test system of series [4] is HeLa Kyoto. The experiment in a line: thermal stability score vs G1/S (z-score of summed log2 fold changes over temperatures); higher = more thermally stable than in G1/S.
Where [5] appears, read: cell cycle stage: early G1 (4.5 h after nocodazole release).
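For melting temperature (median over replicates), in situ in this document: HeLa Kyoto cells synchronized by double thymidine or nocodazole block, proteins quantified by TMT10plex mass spectrometry, three independent biological replicates.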
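For solubility change mitosis vs G1/S (difference of NP-40 vs SDS log2 ratios) in this document: synchronized HeLa Kyoto cells (double thymidine block for G1/S, nocodazole release for mitosis), protein amounts in NP-40 versus SDS lysates quantified by mass spectrometry, three biological replicates.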
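For solubility in G1/S (NP-40 vs SDS abundance) in this document: HeLa Kyoto cells arrested at G1/S by double thymidine block, proteins quantified by TMT10plex mass spectrometry in mild NP-40 versus SDS extracts, three biological replicates.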
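For thermal stability score vs G1/S (z-score of summed log2 fold changes over temperatures) in this document: synchronized HeLa Kyoto cells, proteins quantified by TMT10plex mass spectrometry, three biological replicates, mitosis taken 0.5 h after nocodazole release, G1/S directly after double thymidine block.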

As to PHF3, the “solubility in G1/S (log2)” value in the series on HeLa Kyoto [1] is -0.532. Further, the melting temperature with HeLa Kyoto [2] (cell cycle stage: G1/S) is 53.2 °C; with HeLa Kyoto [2] (cell cycle stage: mitosis), 53.7 °C. For the same substance, in the series with HeLa Kyoto [3], the “solubility change mitosis (log2)” value is 0.194. Further, the thermal stability score in the series on HeLa Kyoto [4] (setting [5]) is 0.714; in the series with HeLa Kyoto [4] (cell cycle stage: mitosis) it was 2.75.

For “MIRRVLPHGMGRGLLTRRPGTRRGGFSLDWDGKVSEIKKKIKSILPGRSCDLLQDTSHLPPEHSDVVIVGGGVLGLSVAYWLKKLESRRGAIRVLVVERDHTYSQASTGLSVGGICQQFSLPENIQLSLFSASFLRNINEYLAVVDAPPLDLRFNPSGYLLLASEKDAAAMESNVKVQRQEGAKVSLMSPDQLRNKFPWINTEGVALASYGMEDEGWFDPWCLLQGLRRKVQSLGVLFCQGEVTRFVSSSQRMLTTDDKAVVLKRIHEVHVKMDRSLEYQPVECAIVINAAGAWSAQIAALAGVGEGPPGTLQGTKLPVEPRKRYVYVWHCPQGPGLETPLVADTSGAYFRREGLGSNYLGGRSPTEQEEPDPANLEVDHDFFQDKVWPHLALRVPAFETLKVQSAWAGYYDYNTFDQNGVVGPHPLVVNMYFATGFSGHGLQQAPGIGRAVAEMVLKGRFQTIDLSPFLFTRFYLGEKIQENNII [FOXRED1]”, in the series on HeLa Kyoto [1], the “solubility in G1/S (log2)” value is -0.0625. The melting temperature in the series on HeLa Kyoto [2] (cell cycle stage: G1/S) stood at 51.5 °C; with HeLa Kyoto [2] (cell cycle stage: mitosis), 51.6 °C. In addition, in the series with HeLa Kyoto [3], the “solubility change mitosis (log2)” value came out at 0.0476. The thermal stability score in the series with HeLa Kyoto [4] (setting [5]) came to 1.19; in the series with HeLa Kyoto [4] (cell cycle stage: mitosis) it was 0.0541.

For CSPG4, in the series with HeLa Kyoto [1], the “solubility in G1/S (log2)” value was determined as 0.0261. Further, the results for the melting temperature with HeLa Kyoto [2] (cell cycle stage: G1/S) and with HeLa Kyoto [2] (cell cycle stage: mitosis) were 54.8 °C and 55 °C, respectively. For the same substance, the “solubility change mitosis (log2)” value in the series on HeLa Kyoto [3] was found to be 0.0955. Besides, the figures for the thermal stability score in the series on HeLa Kyoto [4] (setting [5]) and in the series with HeLa Kyoto [4] (cell cycle stage: mitosis) were -3.28 and 0.175, respectively.

Consider “MAQRMTTQLLLLLVWVAVVGEAQTRIAWARTELLNVCMNAKHHKEKPGPEDKLHEQCRPWRKNACCSTNTSQEAHKDVSYLYRFNWNHCGEMAPACKRHFIQDTCLYECSPNLGPWIQQVDQSWRKERVLNVPLCKEDCEQWWEDCRTSYTCKSNWHKGWNWTSGFNKCAVGAACQPFHFYFPTPTVLCNEIWTHSYKVSNYSRGSGRCIQMWFDPAQGNPNEEVARFYAAAMSGAGPWAAWPFLLSLALMLLWLLS [FOLR1]”, for which, in the series with HeLa Kyoto [1], the “solubility in G1/S (log2)” value is -0.325. Also, the melting temperature with HeLa Kyoto [2] (cell cycle stage: G1/S) is 58.8 °C. In addition, in the series with HeLa Kyoto [3], the “solubility change mitosis (log2)” value turned out to be 0.0281. The thermal stability score in the series with HeLa Kyoto [4] (setting [5]) was -1.06; with HeLa Kyoto [4] (cell cycle stage: mitosis), -1.43.

For the substance “MAAPGAPAEYGYIRTVLGQQILGQLDSSSLALPSEAKLKLAGSSGRGGQTVKSLRIQEQVQQTLARKGRSSVGNGNLHRTSSVPEYVYNLHLVENDFVGGRSPVPKTYDMLKAGTTATYEGRWGRGTAQYSSQKSVEERSLRHPLRRLEISPDSSPERAHYTHSDYQYSQRSQAGHTLHHQESRRAALLVPPRYARSEIVGVSRAGTTSRQRHFDTYHRQYQHGSVSDTVFDSIPANPALLTYPRPGTSRSMGNLLEKENYLTAGLTVGQVRPLVPLQPVTQNRASRSSWHQSSFHSTRTLREAGPSVAVDSSGRRAHLTVGQAAAGGSGNLLTERSTFTDSQLGNADMEMTLERAVSMLEADHMLPSRISAAATFIQHECFQKSEARKRVNQLRGILKLLQLLKVQNEDVQRAVCGALRNLVFEDNDNKLEVAELNGVPRLLQVLKQTRDLETKKQITDHTVNLRSRNGWPGAVAHACNPSTLGGQGGRITRSGVRDQPDQHGLLWNLSSNDKLKNLMITEALLTLTENIIIPFSGWPEGDYPKANGLLDFDIFYNVTGCLRNMSSAGADGRKAMRRCDGLIDSLVHYVRGTIADYQPDDKATENCVCILHNLSYQLEAELPEKYSQNIYIQNRNIQTDNNKSIGCFGSRSRKVKEQYQDVPMPEEKSNPKGVEWLWHSIVIRMYLSLIAKSVRNYTQEASLGALQNLTAGSGPMPTSVAQTVVQKESGLQHTRKMLHVGDPSVKKTAISLLRNLSRNLSLQNEIAKETLPDLVSIIPDTVPSTDLLIETTASACYTLNNIIQNSYQNARDLLNTGGIQKIMAISAGDAYASNKASKAASVLLYSLWAHTELHHAYKKAQFKKTDFVNSRTAKAYHSLKD [PKP2]”, the “solubility in G1/S (log2)” value in the series with HeLa Kyoto [1] is -0.953. Moreover, the figures for the melting temperature in the series on HeLa Kyoto [2] (cell cycle stage: G1/S) and in the series on HeLa Kyoto [2] (cell cycle stage: mitosis) were 50.7 °C and 49.9 °C, respectively. The “solubility change mitosis (log2)” value in the series with HeLa Kyoto [3] is 0.0433. Besides, the thermal stability score in the series on HeLa Kyoto [4] (setting [5]) was -1.03; with HeLa Kyoto [4] (cell cycle stage: mitosis), -0.99.

As to “MPYEIKKVFASLPQVERGVSKIIGGDPKGNNFLYTNGKCVILRNIDNPALADIYTEHAHQVVVAKYAPSGFYIASGDVSGKLRIWDTTQKEHLLKYEYQPFAGKIKDIAWTEDSKRIAVVGEGREKFGAVFLWDSGSSVGEITGHNKVINSVDIKQSRPYRLATGSDDNCAAFFEGPPFKFKFTIGDHSRFVNCVRFSPDGNRFATASADGQIYIYDGKTGEKVCALGGSKAHDGGIYAISWSPDSTHLLSASGDKTSKIWDVSVNSVVSTFPMGSTVLDQQLGCLWQKDHLLSVSLSGYINYLDRNNPSKPLHVIKGHSKSIQCLTVHKNGGKSYIYSGSHDGHINYWDSETGENDSFAGKGHTNQVSRMTVDESGQLISCSMDDTVRYTSLMLRDYSGQGVVKLDVQPKCVAVGPGGYAVVVCIGQIVLLKDQRKCFSIDNPGYEPEVVAVHPGGDTVAIGGVDGNVRLYSILGTTLKDEGKLLEAKGPVTDVAYSHDGAFLAVCDASKVVTVFSVADGYSENNVFYGHHAKIVCLAWSPDNEHFASGGMDMMVYVWTLSDPETRVKIQDAHRLHHVSSLAWLDEHTLVTTSHDASVKEWTITY [WDR1]”, the “solubility in G1/S (log2)” value in the series on HeLa Kyoto [1] is -0.153. For the same substance, the melting temperature in the series on HeLa Kyoto [2] (cell cycle stage: G1/S) came out at 53.7 °C; in the series on HeLa Kyoto [2] (cell cycle stage: mitosis) it was 52.3 °C. The “solubility change mitosis (log2)” value in the series with HeLa Kyoto [3] is -0.128. The thermal stability score with HeLa Kyoto [4] (setting [5]) is -0.713; with HeLa Kyoto [4] (cell cycle stage: mitosis), -2.84.

As to “MTELETAMGMIIDVFSRYSGSEGSTQTLTKGELKVLMEKELPGFLQSGKDKDAVDKLLKDLDANGDAQVDFSEFIVFVAAITSACHKYFEKAGLK [S100P]”, in the series on HeLa Kyoto [1], the “solubility in G1/S (log2)” value is -0.525. The melting temperature with HeLa Kyoto [2] (cell cycle stage: G1/S) turned out to be 54.1 °C; with HeLa Kyoto [2] (cell cycle stage: mitosis), 51 °C. Also, the “solubility change mitosis (log2)” value with HeLa Kyoto [3] was determined as 0.32. For the same substance, the thermal stability score with HeLa Kyoto [4] (setting [5]) is -0.94; with HeLa Kyoto [4] (cell cycle stage: mitosis), -5.53.

The values above are taken from the supplement of paper PMC5998384.
